Like-named read-outs stand apart in the source and are kept apart here. Ends that are not written are not given here.
How the values were obtained:
[1] = molecular target: T1, human μ opioid receptor coupled to G protein-activated K+ channel (Homo sapiens, UniProt P35372); assay type: cell-based
T1 construct: Messenger RNAs encoding both proteins (Chen and Yu, 1994) were generated by in vitro transcription and injected into Xenopus oocytes; expressed in transfected cells; host or cells: Xenopus laevis oocytes (mRNA injection)

[2] = molecular target: T2, rat μ opioid receptor coupled to G protein-activated K+ channel (Rattus norvegicus, UniProt P33535, V245I); assay type: cell-based
T2 construct: A cDNA clone, MOR-1, containing the protein coding region of a rat μ opioid receptor has been described; expressed in transfected cells; host or cells: Xenopus oocytes (mRNA injection)

[3] = molecular target: T3, rat μ-opioid receptor MOR-1 (Rattus norvegicus, UniProt P33535, V245I); test: biochemical; assay type: binding
T3 construct: A 1.4-kilobase HindIII fragment encompassing the open reading frame from the cDNA encoding MOR-1 was cloned; expressed in transfected cells; host or cells: COS-7

[4] = molecular target: T4, novel member of the opioid receptor gene family (SEQ ID NO: 17) (Rattus norvegicus, UniProt P35370); assay type: cell-based
T4 construct: mRNA of this clone was synthesized by in vitro transcription and coinjected into Xenopus oocytes; expressed in transfected cells; host or cells: Xenopus oocytes (mRNA injection)
T4 sequence (P35370 whole entry): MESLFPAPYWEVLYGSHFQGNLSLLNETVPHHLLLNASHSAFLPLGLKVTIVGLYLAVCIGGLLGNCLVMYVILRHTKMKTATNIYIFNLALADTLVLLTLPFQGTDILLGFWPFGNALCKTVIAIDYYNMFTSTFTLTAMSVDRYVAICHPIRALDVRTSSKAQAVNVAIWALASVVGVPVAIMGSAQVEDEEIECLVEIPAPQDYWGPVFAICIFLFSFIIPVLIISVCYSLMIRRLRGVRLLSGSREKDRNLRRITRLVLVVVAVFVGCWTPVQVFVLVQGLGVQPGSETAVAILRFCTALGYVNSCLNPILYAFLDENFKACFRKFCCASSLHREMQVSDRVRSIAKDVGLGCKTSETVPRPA

rat μ opioid receptor = molecular target: T5, rat μ opioid receptor (Rattus norvegicus, UniProt P33535, V245I); assay type: binding
T5 construct: A plasmid containing a 1.4 kb cDNA for the rat μ opioid receptor in a mammalian expression vector pRc/CMV has been described; expressed in transfected cells

[5] = molecular target: T6, human μ receptor (adenylyl cyclase) (Homo sapiens, UniProt P35372); assay type: cell-based
T6 construct: the cDNA containing the open reading frame of the receptor was cloned downstream of the human cytomegalovirus promoter in the mammalian expression vector pcDNA3; expressed in transfected cells; host or cells: COS-7 (transient)

[6] = molecular target: T7, cloned human μ opioid receptor (Homo sapiens, UniProt P35372); conditions: read-out: Binding potencies (Ki-nM), human μ receptor, [3H]DAMGO
T7 construct: the cDNA containing the open reading frame of the receptor was cloned downstream of the human cytomegalovirus promoter in the mammalian expression vector pcDNA3; expressed in transfected cells; host or cells: COS-7 (transient)

[7] = molecular target: T8, cloned human mu opioid receptor (human, UniProt P35372 1-400); test: inhibition of 2 nM [3H]DAMGO binding; membranes of COS-7 cells expressing the human µ receptor
T8 construct: Full-length receptor expressed from pcDNA3 in COS-7 cells (membranes) or from mRNA in Xenopus oocytes; also called human µ opioid receptor; human µ receptor

Mu1 site = conditions: Clark et al., 1988; cited from earlier work
[8] = molecular target: human μ opioid receptor hμOR1 (Homo sapiens, UniProt P35372, D51N)
[9] = molecular target: μ opioid receptor (PL-17 sites), guinea pig brain membranes; conditions: read-out: affinity (displacement of radiolabeled PL-17); Kawasaki et al., 1990; cited from earlier work
Mu2 site = conditions: Clark et al., 1988; cited from earlier work
[10] = molecular target: mu opioid receptor (DAMGO sites); conditions: read-out: affinity (displacement of radiolabeled DAMGO); Vaughn and Taylor, 1989; cited from earlier work
[11] = molecular target: T9, rat mu opioid receptor MOR-1 (rat, UniProt P33535 1-398); test: whole-oocyte binding of 1 nM ^3H-DAMGO; oocytes injected with mRNAs for the µ receptor and the K^+ channel
T9 construct: Full-length receptor expressed from the cDNA in COS-7 cells (membranes), stably in CHO cells (membranes, whole cells) or in Xenopus oocytes; also called rat µ-opioid receptor; cloned rat µ receptor

[12] = molecular target: T9, rat mu opioid receptor MOR-1; test: cell-based or functional assay
[13] = molecular target: T9, rat mu opioid receptor MOR-1; test: saturation binding of [3H]DAMGO; membranes of stably transfected CHO cells
[14] = molecular target: T8, cloned human mu opioid receptor; test: [3H]DAMGO binding to membranes of COS-7 cells pretreated with pertussis toxin
[15] = molecular target: T9, rat mu opioid receptor MOR-1; test: as above
[16] = molecular target: T9, rat mu opioid receptor MOR-1; test: displacement of 0.25 nM [3H]diprenorphine; membranes of COS-7 cells expressing MOR-1
[17] = molecular target: T8, cloned human mu opioid receptor; test: [3H]DAMGO binding to COS-7 membranes with 100 mM GTPgS in the assay
[18] = molecular target: T9, rat mu opioid receptor MOR-1; test: as above
[19] = molecular target: T8, cloned human mu opioid receptor; test: saturation binding; membranes of COS-7 cells expressing the human µ receptor
[20] = molecular target: T9, rat mu opioid receptor MOR-1; test: saturation binding; membranes of stably transfected CHO cells
[21] = molecular target: T8, cloned human mu opioid receptor; test: saturation binding, Scatchard analysis; membranes of COS-7 cells expressing the human µ receptor
[22] = molecular target: T8, cloned human mu opioid receptor; test: displacement of […] [3H]DAMGO; membranes of COS-7 cells expressing the human µ receptor
[23] = molecular target: T9, rat mu opioid receptor MOR-1; test: inhibition of [3H]DAMGO binding; membranes of COS-7 cells expressing the rat µ receptor

CC1=C[C@H]2[C@@]3(O)[C@H](C)[C@@H](O)[C@]4(O)[C@H]([C@@H]3C=C(CO)C[C@@]2(O)C1=O)C4(C)C [4α-phorbol]
second DAMGO response relative to the first (peak current) [1]: 87%+2%

Nc1ncnc2c1nc(Sc1ccc(Cl)cc1)n2[C@@H]1O[C@@H]2COP(=O)(O)O[C@H]2[C@H]1O [8-CPT-cAMP, 8-chlorophenylthio-cAMP]
effect of kinase modulators on desensitization (in words) [2]: completely abolished the desensitization

COc1cccc2c1[C@]13CCN(CC4CC4)[C@H](C2)[C@]1(OC)CCC(=O)C3 [Cyprodime]
Ki [3]: 9.1 ± 2.8 nM
Ki values (in words) [3]: nanomolar range

CC1(C)SSC(C)(C)[C@@H](NC(=O)[C@@H](N)Cc2ccc(O)cc2)C(=O)NCC(=O)N[C@@H](Cc2ccccc2)C(=O)N[C@H]1C(=O)O [DPDPE, [D-Pen^2.5]-enkephalin]
induction of potassium conductance (in words) [4]: no potassium conductance was induced

CC(C)C[C@H](NC(=O)[C@H](Cc1ccccc1)NC(=O)CNC(=O)[C@@H](CO)NC(=O)[C@@H](N)Cc1ccc(O)cc1)C(=O)N[C@H](C(=O)O)[C@@H](C)O [DSLET, [D-Ser, Leu^5, Thr^6]-enkephalin]
Ki [3]: 314 nM

Nc1nc2c(ncn2[C@@H]2O[C@H](COP(=O)(O)OP(=O)(O)OP(=O)(O)O)[C@@H](O)[C@H]2O)c(=O)[nH]1 [GTP]
effect on specific [3H]DAMGO binding (in words) (rat μ opioid receptor): decrease the specific binding

Nc1nc2c(ncn2[C@@H]2O[C@H](COP(=O)(O)OP(=O)(O)NP(=O)(O)O)[C@@H](O)[C@H]2O)c(=O)[nH]1 [Gp(NH)pp]
effect on specific [3H]DAMGO binding (in words) (rat μ opioid receptor): decrease the specific binding

CCCCCCCCCCCCCC(=O)O[C@@H]1[C@@H](C)[C@@]2(O)[C@@H](C=C(CO)C[C@]3(O)C(=O)C(C)=C[C@@H]23)[C@@H]2C(C)(C)[C@]12OC(C)=O [PMA, phorbol 12-myristate 13-acetate]
effect of kinase modulators on desensitization (in words) [2]: further reduced the second response
second DAMGO response relative to the first (peak current) [1]: 29%+7%

CN1CC[C@]23CCCC[C@H]2[C@H]1Cc1ccc(O)cc13 [levorphanol]
effect on forskolin-stimulated cAMP accumulation (in words) [5]: decreased cAMP accumulation

COC(=O)/C=C/C(=O)N[C@@H]1CC[C@@]2(O)[C@H]3Cc4ccc(O)c5c4[C@@]2(CCN3CC2CC2)[C@H]1O5 [β-funaltrexamine]
Ki values (in words) [3]: nanomolar range
Ki ([3]; read-out: Ki values): 1.3 ± 0.1 nM
Ki [6]: 0.29 nM

CTOP, D-Phe-Cys-Tyr-D-Trp-Orn-Thr-Pen-Thr-NH2 (peptide)
Ki [7]: 3.9 nM

Dynorphin A
Ki (Mu1 site): 0.7 nM
difference in Ki between the inventor's clone and the clone of Wang et al. [8]: over 100 fold
Ki [9]: 5 nM
Ki (Mu2 site): 2.2 nM
Ki [10]: 3 nM

GGFMTSEKSQTPLVTLFKNAIIKNAYKKGE [des-Tyr^1-β-endorphin]
Ki [6]: > 1000 nM

Leu-enkephalin
effect on forskolin-stimulated cAMP accumulation (in words) [5]: significantly reduced

[D-Ala^2, N-Me-Phe^4, Gly-ol^5]-enkephalin (peptide)
specific binding [11]: 1 fmol/oocyte
DAMGO/control (cAMP with forskolin plus DAMGO over forskolin only), morphine-treated cells [12]: 42.4%
DAMGO/control (cAMP with forskolin plus DAMGO over forskolin only), naive cells [12]: 71.9%
EC50 of inhibition of forskolin-stimulated intracellular cAMP, naive transfected CHO cells [12]: 30 nM
GTPase activity of G proteins, stably transfected CHO cells, 10 µM DAMGO [12]: 30%
barium current through a voltage-activated calcium channel, Xenopus oocytes with the channel and the mu opioid receptor, 1 µM DAMGO [12]: > 80 % reduction
intracellular cAMP level after forskolin, COS-7 cells expressing MOR-1, 100 nM DAGO [12]: 18.1 % reduction
intracellular cAMP level, Forskolin + DAMGO (1 µM), morphine-treated cells (fmol/1 × 10^3 cells) [12]: 38.9
intracellular cAMP level, Forskolin + DAMGO (1 µM), naive cells (fmol/1 × 10^3 cells) [12]: 25.6
low Km GTPase activity, membranes of stably transfected CHO cells, 1 µM DAMGO [12]: 33%
maximal inhibition of intracellular cAMP, naive transfected CHO cells [12]: 25%
maximal inhibition of intracellular cAMP, transfected CHO cells treated with morphine for 24 hr [12]: 60%
Bmax (fmol/mg membrane protein) [13]: 630
Kd [13]: 0.47 nM
decrease of labelling after PTX-pretreatment [14]: 79%
decrease of labelling after PTX-pretreatment [15]: 42%
Ki [16]: 2.8 nM
decrease of specific labelling by GTPgS [17]: 65%
decrease of specific labelling by GTPgS [18]: 55%
Bmax (fmol/mg membrane protein) [19]: 381
Kd [20]: 1 nM
Bmax [21]: 232 fmol/mg
Kd [21]: 1 nM

[D-Pen^2,5]-enkephalin (peptide)
IC50 [22]: > 1000 nM

cyclic somatostatin (peptide)
IC50 [16]: 11000 nM

YGGFMTSEKSQTPLVTLFKNAIIKNAYKKGE (peptide, UniProt P01189 237-267, looked up, mature) [β-endorphin]
Ki [23]: 1.7 nM

AGCKNFFWKTFTSC (peptide, UniProt P61278 103-116, looked up, mature) [Somatostatin-1-14]
IC50 [16]: 730000 nM

Reference: US7097988B1 (ADVANCED RESEARCH AND TECHNOLOGY INSTITUTE, dated 2006)
